The values that follow come from US5683884 (ZymoGenetics, Inc., dated 1997).

Bridges are numbered along the chain shown (N, C = ends). Where no end group is shown, it is not given here.

The target of assay [1] is T1, human calcitonin receptor (cDNA clone pHollex, from T-47D breast carcinoma cDNA), expressed in transfected … (human).
T1 chain: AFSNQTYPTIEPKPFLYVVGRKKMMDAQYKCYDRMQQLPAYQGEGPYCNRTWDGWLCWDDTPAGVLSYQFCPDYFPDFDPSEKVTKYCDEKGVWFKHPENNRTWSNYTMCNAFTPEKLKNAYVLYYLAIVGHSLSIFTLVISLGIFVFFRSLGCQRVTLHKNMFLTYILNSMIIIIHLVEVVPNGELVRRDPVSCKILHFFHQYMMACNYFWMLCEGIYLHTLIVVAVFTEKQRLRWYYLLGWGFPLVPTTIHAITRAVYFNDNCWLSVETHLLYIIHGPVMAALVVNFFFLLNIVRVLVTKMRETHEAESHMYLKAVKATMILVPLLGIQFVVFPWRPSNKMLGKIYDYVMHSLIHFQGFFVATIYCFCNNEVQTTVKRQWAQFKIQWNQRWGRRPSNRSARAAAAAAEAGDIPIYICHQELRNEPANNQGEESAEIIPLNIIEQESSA
Nature of the assay: 125I calcitonin competition binding on whole cells, clone Hollex2, average. The protocol: (§1) Clones Hollex1 and Hollex2 were tested for receptor-mediated ability to bind calcitonin using a competition assay. T47D cells were used as a positive control and BHK cells transfected with Zem1698 were used as a negative control.
(§2) The cells were plated at a density of 1×10^5 cells/well in a 24-well cell culture dish and allowed to grow for 48 hours at 37° C. and 5% CO_2 in growth medium (described in previous examples). The cells were rinsed in binding medium (500 ml RPMI 1640 (Sigma, St. Louis, Mo.), 1 mg/ml bacitracin (Sigma), and 1 mg/ml BSA (Boehringer Mannheim)) to remove the serum. Three hundred microliters of binding medium containing radiolabeled ^125I agonist and a serial dilution of unlabeled competitor (Table 1) were added to appropriate wells. The cells were incubated for 1.5 hours at room temperature, and then rinsed 3 times with PBS to remove unincorporated radioactivity. Five hundred microliters of 0.25N NaOH was added to each well to solubilize the cells. The samples were collected from each well and CPMs were counted on a gamma counter.

Assay [2] concerns the target T2, human calcitonin receptor (cDNA clone pHollex, from T-47D breast carcinoma cDNA), expressed in transfected BHK cells (human).
T2 sequence: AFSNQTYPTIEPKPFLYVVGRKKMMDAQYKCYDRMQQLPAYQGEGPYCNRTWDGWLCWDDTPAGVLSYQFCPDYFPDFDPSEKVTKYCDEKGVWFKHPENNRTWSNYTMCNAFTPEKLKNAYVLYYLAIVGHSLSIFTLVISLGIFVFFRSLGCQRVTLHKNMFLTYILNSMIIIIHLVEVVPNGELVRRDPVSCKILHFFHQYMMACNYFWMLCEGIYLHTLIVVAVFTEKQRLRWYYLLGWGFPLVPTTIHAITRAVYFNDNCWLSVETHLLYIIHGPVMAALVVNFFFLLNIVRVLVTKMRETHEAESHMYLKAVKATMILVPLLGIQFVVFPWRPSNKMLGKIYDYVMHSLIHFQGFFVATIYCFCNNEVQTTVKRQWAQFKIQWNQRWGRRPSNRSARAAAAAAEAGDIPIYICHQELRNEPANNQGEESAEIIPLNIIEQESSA

The target of assay [3] is T1, human calcitonin receptor (cDNA clone …). The experiment in a line: 125I calcitonin competition binding on whole cells, clone Hollex1, average. The protocol:
as §1, §2

In assay [4] the target is T2, human calcitonin receptor (cDNA clone pHollex, from T-47D breast carcinoma cDNA), expressed in transfected BHK cells (human). The source holds these as a separate data set.
The target in assay [5] is T3, calcitonin receptor of T-47D human breast carcinoma cells (endogenous, positive control) (human, UniProt P30988).
T3 sequence: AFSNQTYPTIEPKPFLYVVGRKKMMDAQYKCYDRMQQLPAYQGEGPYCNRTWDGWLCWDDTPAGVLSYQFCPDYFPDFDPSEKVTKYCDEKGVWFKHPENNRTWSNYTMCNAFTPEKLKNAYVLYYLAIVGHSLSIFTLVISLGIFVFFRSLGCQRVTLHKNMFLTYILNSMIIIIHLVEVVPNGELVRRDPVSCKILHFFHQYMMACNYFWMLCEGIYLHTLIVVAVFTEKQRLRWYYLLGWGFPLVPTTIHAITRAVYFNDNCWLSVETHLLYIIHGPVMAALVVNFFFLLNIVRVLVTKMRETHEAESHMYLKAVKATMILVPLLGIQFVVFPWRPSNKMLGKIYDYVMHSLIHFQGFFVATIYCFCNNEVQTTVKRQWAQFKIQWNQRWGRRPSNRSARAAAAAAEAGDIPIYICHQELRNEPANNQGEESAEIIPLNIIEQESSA
Nature of the assay: 125I calcitonin competition binding on whole T47D cells (positive control), average. How it is done: as §1, §2

Take CSNLSTCVLGKLSQELHKLQTYPRTNTGSGTP-NH2 (ligand, disulfide 1-7; ends not checked; also: also used 125I-labelled as tracer) [salmon calcitonin]: the values for the Kd in assay [1], in assay [3] and in assay [5] were 300 pM, 500 pM and 600 pM, respectively. Further, the ED50 of labeled inositol phosphate levels (Hollex1) in assay [2] is 9500 pM. Also, the ED50 of cAMP induction (Hollex1) in assay [4] is 70 pM. Also, the ED50 of cAMP induction (Hollex2) in assay [4] was found to be 40 pM. The induction of cAMP (radioimmunoassay, scintillation proximity assay) (fold induction) in assay [4] is 12.

By Kd is commonly meant a measure of binding affinity in units of concentration.
